Source: patent US20250361268A1, “NOVEL ANTI-INFLAMMATORY PEPTIDE AND USE THEREOF” (NOVACELL TECHNOLOGY INC., priority 2022, published 2025)

T1: formyl peptide receptor 2 (FPR2) (UniProt P25090 1-351, limits assumed)
T1 sequence (looked up): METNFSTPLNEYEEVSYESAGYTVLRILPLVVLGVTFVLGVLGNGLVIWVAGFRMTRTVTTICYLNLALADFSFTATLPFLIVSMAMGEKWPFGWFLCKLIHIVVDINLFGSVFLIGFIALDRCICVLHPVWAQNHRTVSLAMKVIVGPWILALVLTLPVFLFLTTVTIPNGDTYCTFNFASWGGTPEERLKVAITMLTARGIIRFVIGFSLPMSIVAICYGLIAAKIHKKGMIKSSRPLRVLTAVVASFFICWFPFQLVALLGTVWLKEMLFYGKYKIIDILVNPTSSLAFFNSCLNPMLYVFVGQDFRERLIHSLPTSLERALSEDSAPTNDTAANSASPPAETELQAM

B1: peptide of SEQ ID NO 105 (peptide)
peptide: MRYWVM
HELM: PEPTIDE1{[ac].M.R.Y.W.V.[dM].[am]}$$$$V2.0
SMILES: CSCC[C@H](NC(C)=O)C(=O)N[C@@H](CCCNC(=N)N)C(=O)N[C@@H](Cc1ccc(O)cc1)C(=O)N[C@@H](Cc1c[nH]c2ccccc12)C(=O)N[C@H](C(=O)N[C@H](CCSC)C(N)=O)C(C)C
B2: peptide of SEQ ID NO 108 (peptide)
peptide: RMRYWPM
HELM: PEPTIDE1{[CCCC(=O)[*:2]].R.M.R.Y.W.P.[dM].[am]}$$$$V2.0
SMILES: CCCC(=O)N[C@@H](CCCNC(=N)N)C(=O)N[C@@H](CCSC)C(=O)N[C@@H](CCCNC(=N)N)C(=O)N[C@@H](Cc1ccc(O)cc1)C(=O)N[C@@H](Cc1c[nH]c2ccccc12)C(=O)N1CCC[C@H]1C(=O)N[C@H](CCSC)C(N)=O
B3: peptide of SEQ ID NO 100 (peptide)
peptide: MRYYVM
HELM: PEPTIDE1{M.R.Y.Y.V.[dM].[am]}$$$$V2.0; N-terminus assumed
SMILES: CSCC[C@H](N)C(=O)N[C@@H](CCCNC(=N)N)C(=O)N[C@@H](Cc1ccc(O)cc1)C(=O)N[C@@H](Cc1ccc(O)cc1)C(=O)N[C@H](C(=O)N[C@H](CCSC)C(N)=O)C(C)C
B4: peptide of SEQ ID NO 94 (peptide)
peptide: RWRYYVM
HELM: PEPTIDE1{R.W.R.Y.Y.V.[dM].[am]}$$$$V2.0; N-terminus assumed
SMILES: CSCC[C@@H](NC(=O)[C@@H](NC(=O)[C@H](Cc1ccc(O)cc1)NC(=O)[C@H](Cc1ccc(O)cc1)NC(=O)[C@H](CCCNC(=N)N)NC(=O)[C@H](Cc1c[nH]c2ccccc12)NC(=O)[C@@H](N)CCCNC(=N)N)C(C)C)C(N)=O
B5: peptide of SEQ ID NO 75 (peptide)
peptide: RWRYKPM
HELM: PEPTIDE1{[CCCC(=O)[*:2]].R.W.R.Y.K.P.[dM].[am]}$$$$V2.0
SMILES: CCCC(=O)N[C@@H](CCCNC(=N)N)C(=O)N[C@@H](Cc1c[nH]c2ccccc12)C(=O)N[C@@H](CCCNC(=N)N)C(=O)N[C@@H](Cc1ccc(O)cc1)C(=O)N[C@@H](CCCCN)C(=O)N1CCC[C@H]1C(=O)N[C@H](CCSC)C(N)=O
B6: peptide of SEQ ID NO 98 (peptide)
peptide: RMRYYVM
HELM: PEPTIDE1{[ac].R.M.R.Y.Y.V.[dM].[am]}$$$$V2.0
SMILES: CSCC[C@H](NC(=O)[C@H](CCCNC(=N)N)NC(C)=O)C(=O)N[C@@H](CCCNC(=N)N)C(=O)N[C@@H](Cc1ccc(O)cc1)C(=O)N[C@@H](Cc1ccc(O)cc1)C(=O)N[C@H](C(=O)N[C@H](CCSC)C(N)=O)C(C)C
B7: peptide of SEQ ID NO 102 (peptide)
peptide: WRYWVM
HELM: PEPTIDE1{[ac].W.R.Y.W.V.[dM].[am]}$$$$V2.0
SMILES: CSCC[C@@H](NC(=O)[C@@H](NC(=O)[C@H](Cc1c[nH]c2ccccc12)NC(=O)[C@H](Cc1ccc(O)cc1)NC(=O)[C@H](CCCNC(=N)N)NC(=O)[C@H](Cc1c[nH]c2ccccc12)NC(C)=O)C(C)C)C(N)=O
B8: peptide of SEQ ID NO 109 (peptide)
peptide: RMRYWPM
HELM: PEPTIDE1{[CCCCCCCC(=O)[*:2]].R.M.R.Y.W.P.[dM].[am]}$$$$V2.0
SMILES: CCCCCCCC(=O)N[C@@H](CCCNC(=N)N)C(=O)N[C@@H](CCSC)C(=O)N[C@@H](CCCNC(=N)N)C(=O)N[C@@H](Cc1ccc(O)cc1)C(=O)N[C@@H](Cc1c[nH]c2ccccc12)C(=O)N1CCC[C@H]1C(=O)N[C@H](CCSC)C(N)=O
B9: peptide of SEQ ID NO 106 (peptide)
peptide: RMRYWPM
HELM: PEPTIDE1{R.M.R.Y.W.P.[dM].[am]}$$$$V2.0; N-terminus assumed
SMILES: CSCC[C@H](NC(=O)[C@@H](N)CCCNC(=N)N)C(=O)N[C@@H](CCCNC(=N)N)C(=O)N[C@@H](Cc1ccc(O)cc1)C(=O)N[C@@H](Cc1c[nH]c2ccccc12)C(=O)N1CCC[C@H]1C(=O)N[C@H](CCSC)C(N)=O
B10: peptide of SEQ ID NO 96 (peptide)
peptide: KWKYYVM
HELM: PEPTIDE1{K.W.K.Y.Y.V.[dM].[am]}$$$$V2.0; N-terminus assumed
SMILES: CSCC[C@@H](NC(=O)[C@@H](NC(=O)[C@H](Cc1ccc(O)cc1)NC(=O)[C@H](Cc1ccc(O)cc1)NC(=O)[C@H](CCCCN)NC(=O)[C@H](Cc1c[nH]c2ccccc12)NC(=O)[C@@H](N)CCCCN)C(C)C)C(N)=O
B11: peptide of SEQ ID NO 111 (peptide)
peptide: MRYWPM
HELM: PEPTIDE1{[ac].M.R.Y.W.P.[dM].[am]}$$$$V2.0
SMILES: CSCC[C@H](NC(C)=O)C(=O)N[C@@H](CCCNC(=N)N)C(=O)N[C@@H](Cc1ccc(O)cc1)C(=O)N[C@@H](Cc1c[nH]c2ccccc12)C(=O)N1CCC[C@H]1C(=O)N[C@H](CCSC)C(N)=O
B12: peptide of SEQ ID NO 76 (peptide)
peptide: WRYKPM
HELM: PEPTIDE1{[ac].W.R.Y.K.P.[dM].[am]}$$$$V2.0
SMILES: CSCC[C@@H](NC(=O)[C@@H]1CCCN1C(=O)[C@H](CCCCN)NC(=O)[C@H](Cc1ccc(O)cc1)NC(=O)[C@H](CCCNC(=N)N)NC(=O)[C@H](Cc1c[nH]c2ccccc12)NC(C)=O)C(N)=O
B13: peptide of SEQ ID NO 97 (peptide)
peptide: RMRYYVM
HELM: PEPTIDE1{R.M.R.Y.Y.V.[dM].[am]}$$$$V2.0; N-terminus assumed
SMILES: CSCC[C@H](NC(=O)[C@@H](N)CCCNC(=N)N)C(=O)N[C@@H](CCCNC(=N)N)C(=O)N[C@@H](Cc1ccc(O)cc1)C(=O)N[C@@H](Cc1ccc(O)cc1)C(=O)N[C@H](C(=O)N[C@H](CCSC)C(N)=O)C(C)C
B14: peptide of SEQ ID NO 110 (peptide)
peptide: MRYWPM
HELM: PEPTIDE1{M.R.Y.W.P.[dM].[am]}$$$$V2.0; N-terminus assumed
SMILES: CSCC[C@H](N)C(=O)N[C@@H](CCCNC(=N)N)C(=O)N[C@@H](Cc1ccc(O)cc1)C(=O)N[C@@H](Cc1c[nH]c2ccccc12)C(=O)N1CCC[C@H]1C(=O)N[C@H](CCSC)C(N)=O
B15: peptide of SEQ ID NO 113 (peptide)
peptide: MKYWPM
HELM: PEPTIDE1{M.K.Y.W.P.[dM].[am]}$$$$V2.0; N-terminus assumed
SMILES: CSCC[C@H](N)C(=O)N[C@@H](CCCCN)C(=O)N[C@@H](Cc1ccc(O)cc1)C(=O)N[C@@H](Cc1c[nH]c2ccccc12)C(=O)N1CCC[C@H]1C(=O)N[C@H](CCSC)C(N)=O
B16: peptide of SEQ ID NO 101 (peptide)
peptide: RWRYWVM
HELM: PEPTIDE1{R.W.R.Y.W.V.[dM].[am]}$$$$V2.0; N-terminus assumed
SMILES: CSCC[C@@H](NC(=O)[C@@H](NC(=O)[C@H](Cc1c[nH]c2ccccc12)NC(=O)[C@H](Cc1ccc(O)cc1)NC(=O)[C@H](CCCNC(=N)N)NC(=O)[C@H](Cc1c[nH]c2ccccc12)NC(=O)[C@@H](N)CCCNC(=N)N)C(C)C)C(N)=O
B17: peptide of SEQ ID NO 104 (peptide)
peptide: RMRYWVM
HELM: PEPTIDE1{[ac].R.M.R.Y.W.V.[dM].[am]}$$$$V2.0
SMILES: CSCC[C@H](NC(=O)[C@H](CCCNC(=N)N)NC(C)=O)C(=O)N[C@@H](CCCNC(=N)N)C(=O)N[C@@H](Cc1ccc(O)cc1)C(=O)N[C@@H](Cc1c[nH]c2ccccc12)C(=O)N[C@H](C(=O)N[C@H](CCSC)C(N)=O)C(C)C
B18: peptide of SEQ ID NO 112 (peptide)
peptide: MRYWPM
HELM: PEPTIDE1{[CCCC(=O)[*:2]].M.R.Y.W.P.[dM].[am]}$$$$V2.0
SMILES: CCCC(=O)N[C@@H](CCSC)C(=O)N[C@@H](CCCNC(=N)N)C(=O)N[C@@H](Cc1ccc(O)cc1)C(=O)N[C@@H](Cc1c[nH]c2ccccc12)C(=O)N1CCC[C@H]1C(=O)N[C@H](CCSC)C(N)=O
B19: peptide of SEQ ID NO 107 (peptide)
peptide: RMRYWPM
HELM: PEPTIDE1{[ac].R.M.R.Y.W.P.[dM].[am]}$$$$V2.0
SMILES: CSCC[C@H](NC(=O)[C@H](CCCNC(=N)N)NC(C)=O)C(=O)N[C@@H](CCCNC(=N)N)C(=O)N[C@@H](Cc1ccc(O)cc1)C(=O)N[C@@H](Cc1c[nH]c2ccccc12)C(=O)N1CCC[C@H]1C(=O)N[C@H](CCSC)C(N)=O
B20: peptide of SEQ ID NO 93 (peptide)
peptide: HMRYWYM
HELM: PEPTIDE1{[CCCC(=O)[*:2]].H.M.R.Y.W.Y.[dM].[am]}$$$$V2.0
SMILES: CCCC(=O)N[C@@H](Cc1c[nH]cn1)C(=O)N[C@@H](CCSC)C(=O)N[C@@H](CCCNC(=N)N)C(=O)N[C@@H](Cc1ccc(O)cc1)C(=O)N[C@@H](Cc1c[nH]c2ccccc12)C(=O)N[C@@H](Cc1ccc(O)cc1)C(=O)N[C@H](CCSC)C(N)=O

What follows are binders tested against T1, formyl peptide receptor 2 (FPR2) (assay: cell-based or functional assay).
For B1, the “EC50 for [Ca2+]” value was < 0.01 µM. B2 was tested, and the “EC50 for [Ca2+]” value was < 0.01 µM. For B3, the “EC50 for [Ca2+]” value was < 0.01 µM. For B4, the “EC50 for [Ca2+]” value was < 0.01 µM. B5 was tested, and the “EC50 for [Ca2+]” value was < 0.01 µM. With B6 the “EC50 for [Ca2+]” value was < 0.01 µM. In the case of B7, the “EC50 for [Ca2+]” value is reported as < 0.01 µM. For B8, the “EC50 for [Ca2+]” value was < 0.01 µM. B9 was tested, and the “EC50 for [Ca2+]” value was < 0.01 µM. In the case of B10, the “EC50 for [Ca2+]” value is reported as < 0.01 µM. For B11, the “EC50 for [Ca2+]” value was < 0.01 µM. For B12, the “EC50 for [Ca2+]” value was < 0.01 µM. With B13 the “EC50 for [Ca2+]” value was < 0.01 µM. In the case of B14, the “EC50 for [Ca2+]” value is reported as < 0.01 µM. For B15, the “EC50 for [Ca2+]” value was < 0.01 µM. B16 was tested, and the “EC50 for [Ca2+]” value was < 0.01 µM. B17 was tested, and the “EC50 for [Ca2+]” value was < 0.01 µM. In the case of B18, the “EC50 for [Ca2+]” value is reported as < 0.01 µM. In the case of B19, the “EC50 for [Ca2+]” value is reported as < 0.01 µM. B20 was tested, and the “EC50 for [Ca2+]” value was < 0.01 µM.
